Tests used:
[1] = molecular target: Lyspro (B28Lys, B29Pro insulin) (UniProt P01308); assay: self-association by size exclusion chromatography, Superdex 75, PBS pH 7.4, 80 umol/l protein
[2] = Determination of self-association property by size exclusion chromatography (Superdex 75); type: physicochemical
Method: The molecular homogeneity was measured by Symmetry factor Fs. Fs=W0.05h/2A, wherein, W0.05 is the band width at 0.05 peak height and A is the width of the first half peak at 0.05 peak height. The change of average molecular weight was measured by plotting the distribution coefficient Kav vs. protein concentration. Kav=(Vr−V0)/(Vc−Vo), wherein Vr is the retention volume, Vo the void volume and Vc the total bed volume.

Kav [1] | Substance | retention time on Superdex 75 column versus protein concentration ([2]; PBS pH7.4, 40-600 μmol/L) | Kav value versus protein concentration ([2]; PBS pH7.4, increasing concentration) | Fs value (symmetry factor, peak shape) versus protein concentration ([2]; PBS pH7.4, insulin: at concentrations above 400 umol/L)
0.48 | Lyspro (B28Lys, B29Pro insulin) (from UniProt P01308 25-110; P01308 25-110) | – | – | –
– | zinc free insulin: zinc free porcine insulin used as control in size exclusion chromatography | decreased with increasing concentration | decreased with increasing concentration | increased markedly
